From patent publication US20160311912A1 (RINAT NEUROSCIENCE, published 2016)

Key:
[1] = molecular target: T1, Human glucagon receptor extracellular domain human Fc fusion protein (human, UniProt P47871 26-136, limits assumed); assay: SPR (Biacore T200), receptor-Fc captured on anti-human Fc chip, mAb5 Fab as analyte, 37° C.
T1 construct: also called glucagon receptor Fc fusion protein; not shown: human Fc
Method: (§1) An anti-human Fc sensor chip was prepared by activating all flow cells of a Biacore CM4 sensor chip with a 1:1 (v/v) mixture of 400 mM EDC and 100 mM NHS for 7 minutes, at a flow rate of 10 μL/min. Goat anti-human Fc antibody (Southern Biotech) was diluted to 50 μg/mL in 10 mM sodium acetate pH 5.0 and injected on all flow cells for 7 minutes at 20 μL/min. All flow cells were blocked with 100 mM ethylenediamine in 150 mM borate buffer pH 8.5 for 7 minutes at 10 μL/min. The running buffer for this immobilization procedure was 10 mM HEPES, 150 mM NaCl, 0.05% (v/v) TWEEN® 20, pH 7.4.
(§2) The following kinetics experiments were performed at 25° C. and 37° C. using a running buffer of 10 mM HEPES, 150 mM NaCl, 0.05% (v/v) TWEEN® 20, pH 7.4, 1 mg/mL BSA.
(§3) All experiments were performed on a Biacore™ T200 surface Plasmon resonance biosensor (GE Lifesciences, Piscataway N.J.). Human and cynomolgus monkey (cyno) glucagon receptor extracellular domain human Fc fusion proteins were captured onto downstream flow cells (flow cells 2, 3, respectively) at 2 μg/mL at a flow rate of 10 μL/min for 3 minutes. Flow cell 1 was used as a blank reference surface. Following capture of glucagon receptor Fc fusion proteins, analyte (buffer, or mAb5 Fab) was injected at 30 μL/min on all flow cells for two minutes. Multiple mAb5 Fab analyte concentrations were tested. The mAb5 Fab analyte concentrations were 0.16, 0.8, 4, 20 and 100 nM. After the analyte injection, dissociation was monitored for 10 minutes (for the 20 nM and 100 nM mAb5 Fab analyte samples) or 30 seconds (for the 0.16, 0.8, and 4 nM mAb5 Fab analyte samples). Dissociation was monitored for 30 seconds and 10 minutes for buffer analyte cycles. Following analyte binding and dissociation all flow cells were regenerated with four 1-minute injections of 75 mM phosphoric acid. The sensorgram data were double referenced prior to curve fitting (double referencing as described in Myszka, D. G., 1999, J. Mol. Recognit., 12:279-284. The double referenced sensorgrams were fit globally to a simple 1:1 Langmuir with mass transport binding model using the Biacore™ T200 evaluation software. The binding affinity data for anti-glucagon receptor antagonist antibody mAb5 binding to human and cyno glucagon receptor are shown below in Table 4.

[2] = molecular target: T2, Cynomolgus monkey (cyno) glucagon receptor extracellular domain human Fc fusion protein (cynomolgus monkey); assay: as above
T2 construct: extracellular domain
Method: as §1, §2, §3

[3] = molecular target: T2, Cynomolgus monkey (cyno) glucagon …; assay: SPR (Biacore T200), receptor-Fc captured on anti-human Fc chip, mAb5 Fab as analyte, 25° C.; dissociation too slow, limit reported
Method: as §1, §2
(§4) All experiments were performed on a Biacore™ T200 surface Plasmon resonance biosensor (GE Lifesciences, Piscataway N.J.). Human and cynomolgus monkey (cyno) glucagon receptor extracellular domain human Fc fusion proteins were captured onto downstream flow cells (flow cells 2, 3, respectively) at 2 μg/mL at a flow rate of 10 μL/min for 3 minutes. […] After the analyte injection, dissociation was monitored for 10 minutes (for the 20 nM and 100 nM mAb5 Fab analyte samples) or 30 seconds (for the 0.16, 0.8, and 4 nM mAb5 Fab analyte samples). Dissociation was monitored for 30 seconds and 10 minutes for buffer analyte cycles. […]

[4] = molecular target: T1, Human glucagon receptor extracellular …; assay: SPR (Biacore T200), receptor-Fc captured on anti-human Fc chip, mAb5 Fab as analyte, 25° C.
Method: as §1, §2, §3

[5] = molecular target: T2, Cynomolgus monkey (cyno) glucagon …; assay: as above
Method: as §1, §2, §3

[6] = molecular target: T2, Cynomolgus monkey (cyno) glucagon …; assay: SPR (Biacore T200), receptor-Fc captured on anti-human Fc chip, mAb5 Fab as analyte, 25° C.; limit reported
Method: as §1, §2, §4

T1 sequence (P47871 26-136 limits assumed): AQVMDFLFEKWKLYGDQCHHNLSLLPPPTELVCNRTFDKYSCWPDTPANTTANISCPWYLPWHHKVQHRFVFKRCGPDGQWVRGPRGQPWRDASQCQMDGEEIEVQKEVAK

B1: mAb5 Fab (Fab, V domains shown)
VH: QVQLVQSGAEVKKPGASVKVSCKASGYTFTDFSVHWVRQAPGQGLEWMGWINTETDETSYADDFKGRVTMTRDTSTSTVYMELSSLRSEDTAVYYCVKSRYWSYGPPDYWGQGTTVTVSS
VL: DIQMTQSPSSLSASVGDRVTITCQASQNIRTAVVWYQQKPGKAPKLLIYLASNRHSGVPSRFSGSGSGTDFTFTISSLQPEDIATYYCLQHWTYPFTFGGGTKVEIK
notes: also called Fab of anti-glucagon receptor antagonist antibody mAb5
For B1, the Kd [1] was 0.75 nM, the koff [1] was 0.00049 s⁻¹ and the kon [1] was 650000 M⁻¹ s⁻¹. It also gave a t1/2 [1] of 24 min, a Kd [2] of 0.72 nM and a koff [2] of 0.00054 s⁻¹. The kon [2] was 750000 M⁻¹ s⁻¹, the t1/2 [2] was 21 min and the koff [3] was < 8.5e-05 s⁻¹. For the same binder, the Kd [4] was 0.22 nM, the koff [4] was 0.0001 s⁻¹ and the kon [4] was 460000 M⁻¹ s⁻¹. The t1/2 [4] was 116 min, the kon [5] was 500000 M⁻¹ s⁻¹ and the Kd [6] was < 0.17 nM. The t1/2 [6] was > 136 min.
